Settings in all cases: both partners purified
The target of test [1] is T1, GST-β1 (glutathione S-transferase fused β1 subunit of AP-1) (human, UniProt Q10567 1-949).
T1 construct: cloned in pGEX-6P-1; also called GST-β1 (AP-1); GST-fused β1 subunit of AP-1; source: E. coli, purified (Glutathione Sepharose 4B)
T1 sequence (looked up): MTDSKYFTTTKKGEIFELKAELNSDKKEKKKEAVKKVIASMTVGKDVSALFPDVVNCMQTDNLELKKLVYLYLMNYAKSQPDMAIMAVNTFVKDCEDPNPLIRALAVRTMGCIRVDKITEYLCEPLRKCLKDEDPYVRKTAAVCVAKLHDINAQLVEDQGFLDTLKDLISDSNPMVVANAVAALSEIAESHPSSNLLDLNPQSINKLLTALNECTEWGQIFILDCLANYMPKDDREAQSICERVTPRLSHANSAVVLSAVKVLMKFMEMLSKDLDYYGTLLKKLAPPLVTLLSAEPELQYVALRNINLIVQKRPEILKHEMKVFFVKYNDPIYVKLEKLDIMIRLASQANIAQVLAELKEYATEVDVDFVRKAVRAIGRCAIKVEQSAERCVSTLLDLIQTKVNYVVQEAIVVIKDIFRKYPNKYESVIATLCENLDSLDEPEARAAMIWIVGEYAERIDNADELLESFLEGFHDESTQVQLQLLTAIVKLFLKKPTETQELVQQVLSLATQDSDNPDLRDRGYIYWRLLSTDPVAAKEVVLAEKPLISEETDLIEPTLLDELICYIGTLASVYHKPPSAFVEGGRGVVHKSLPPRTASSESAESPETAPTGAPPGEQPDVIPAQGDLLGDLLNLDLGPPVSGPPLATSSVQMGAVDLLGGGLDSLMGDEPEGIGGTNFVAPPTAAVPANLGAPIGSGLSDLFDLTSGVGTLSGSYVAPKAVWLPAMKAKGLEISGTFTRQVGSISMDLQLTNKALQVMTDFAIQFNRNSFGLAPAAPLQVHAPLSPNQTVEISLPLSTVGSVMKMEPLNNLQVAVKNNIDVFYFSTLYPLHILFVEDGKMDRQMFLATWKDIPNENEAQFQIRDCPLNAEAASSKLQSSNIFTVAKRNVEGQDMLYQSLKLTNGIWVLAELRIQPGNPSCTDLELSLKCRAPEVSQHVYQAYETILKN
Put plainly: pull-down; Factor Xa cleaved MBP-LZTFL1 incubated with GST-fused β1 subunit of AP-1 held on Glutathione Sepharose 4B.

For test [2], the target named is T2, GST-β2 (GST-fused β2 subunit of AP-2) (human, UniProt P63010 1-937).
T2 construct: cloned in pGEX-6P-1; also called GST-β2 (AP-2); AP2B1; source: E. coli, purified (Glutathione Sepharose 4B)
T2 sequence (looked up): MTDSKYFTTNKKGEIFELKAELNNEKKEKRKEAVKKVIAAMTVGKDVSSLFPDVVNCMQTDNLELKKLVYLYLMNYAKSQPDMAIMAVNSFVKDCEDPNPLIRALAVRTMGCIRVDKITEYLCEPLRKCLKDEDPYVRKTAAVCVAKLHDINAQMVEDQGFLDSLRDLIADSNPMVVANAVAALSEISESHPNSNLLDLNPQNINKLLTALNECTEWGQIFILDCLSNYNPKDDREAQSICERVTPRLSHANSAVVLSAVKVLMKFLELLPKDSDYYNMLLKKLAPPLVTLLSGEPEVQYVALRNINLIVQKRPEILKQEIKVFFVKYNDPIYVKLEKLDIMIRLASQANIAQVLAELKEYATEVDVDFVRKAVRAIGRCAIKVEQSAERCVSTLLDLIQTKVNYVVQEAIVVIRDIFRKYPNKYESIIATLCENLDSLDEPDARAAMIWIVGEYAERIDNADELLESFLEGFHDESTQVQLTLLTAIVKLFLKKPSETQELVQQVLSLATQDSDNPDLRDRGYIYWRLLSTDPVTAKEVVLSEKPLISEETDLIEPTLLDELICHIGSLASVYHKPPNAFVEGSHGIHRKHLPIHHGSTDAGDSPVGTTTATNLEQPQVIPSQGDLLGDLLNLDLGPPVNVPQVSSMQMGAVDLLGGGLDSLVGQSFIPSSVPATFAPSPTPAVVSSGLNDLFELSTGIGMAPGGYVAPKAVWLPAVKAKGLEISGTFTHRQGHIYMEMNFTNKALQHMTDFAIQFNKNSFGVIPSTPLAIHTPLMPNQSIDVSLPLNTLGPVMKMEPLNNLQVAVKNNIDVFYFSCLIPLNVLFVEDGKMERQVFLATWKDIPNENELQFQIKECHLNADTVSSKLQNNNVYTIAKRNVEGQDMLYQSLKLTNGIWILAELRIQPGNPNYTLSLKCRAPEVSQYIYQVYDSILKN
Put plainly: pull-down; MBP-fused proteins held on amylose resin, purified GST-fused proteins added, overnight at 4°C; blots with anti-MBP and anti-GST.

Test [3] addresses T1, GST-β1 (glutathione S-transferase fused …). The description is as above.

The values that follow come from publication PMC6939906, “Leucine zipper transcription factor-like 1 binds adaptor protein complex-1 and 2 and participates in trafficking of transferrin receptor 1” (PLoS ONE, 2020).

B1: LZTFL1 from purified MBP-LZTFL1 cleaved by Factor Xa (natural protein, human, UniProt Q9NQ48-1 1-299, looked up)
chain: MAELGLNEHHQNEVINYMRFARSKRGLRLKTVDSCFQDLKESRLVEDTFTIDEVSEVLNGLQAVVHSEVESELINTAYTNVLLLRQLFAQAEKWYLKLQTDISELENRELLEQVAEFEKAEITSSNKKPILDVTKPKLAPLNEGGTAELLNKEILRLQEENEKLKSRLKTIEIQATNALDEKSKLEKALQDLQLDQGNQKDFIKAQDLSNLENTVAALKSEFQKTLNDKTENQKSLEENLATAKHDLLRVQEQLHMAEKELEKKFQQTAAYRNMKEILTKKNDQIKDLRKRLAQYEPED
notes: human LZTFL1, wild type; also called Factor Xa cleaved MBP-LZTFL1; source: E. coli, purified as MBP fusion (amylose resin), cleaved with Factor Xa
In the case of B1, the binding result in test [1] is recorded as “binds”.

B2: MBP-LZTFL1 (maltose-binding protein fused with human LZTFL1) (natural protein, UniProt Q9NQ48-1 1-299, looked up)
chain: MAELGLNEHHQNEVINYMRFARSKRGLRLKTVDSCFQDLKESRLVEDTFTIDEVSEVLNGLQAVVHSEVESELINTAYTNVLLLRQLFAQAEKWYLKLQTDISELENRELLEQVAEFEKAEITSSNKKPILDVTKPKLAPLNEGGTAELLNKEILRLQEENEKLKSRLKTIEIQATNALDEKSKLEKALQDLQLDQGNQKDFIKAQDLSNLENTVAALKSEFQKTLNDKTENQKSLEENLATAKHDLLRVQEQLHMAEKELEKKFQQTAAYRNMKEILTKKNDQIKDLRKRLAQYEPED
notes: human LZTFL1, wild type; cloned in pMAL-c2X; also called MBP-fused LZTFL1; wild-type LZTFL1; source: E. coli, purified (amylose resin)
For B2, the binding result in test [2] and in test [3] was “binds” throughout.
